Molecular target: anti-E7 mAb
Experiment: ELISA
Details: read off a plot

Substance | response
recombinant His-E7 protein of HPV16 (from UniProt P03129) C24P | 1.3 OD450
recombinant His-E7 protein of HPV16 (from UniProt P03129) D36H | 1.3 OD450
recombinant His-E7 protein of HPV16 (from UniProt P03129) E10Q | 1.1 OD450
recombinant His-E7 protein of HPV16 (from UniProt P03129) E18Q | 1 OD450
recombinant His-E7 protein of HPV16 (from UniProt P03129) L22A | 1 OD450

— paper PMC7408665
